± gives the uncertainty stated by the source.

This data set in a line: amyloid nucleation score (Sup35N fusion, yeast selection) (log enrichment); library NNK1; higher = more nucleation; inactive = no reads after selection. The essentials:
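After 24 hours of induction with 100 μM copper sulfate, psi-negative yeast expressing peptides of 20 random codons fused to Sup35N were grown for 7 days at 30°C on medium lacking adenine and uracil. Input and output plasmid inserts were sequenced with Illumina, and sequences with under 100 input reads were discarded. Scores for nucleation are the DiMSum log enrichment of output over input reads, centred on the mode score of non-aggregating sequences.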
DFRKDWYWESPASRFFTNEV: the amyloid nucleation score came to 0.44 ± 0.53.

For the substance FIMIDRPETLQPNLDGLKL, the amyloid nucleation score is -0.524 ± 0.45.

AYNLNLYNRCQVLMLISSTR had an amyloid nucleation score of 4.91 ± 0.048.

YGILSLRICSLENSLSA showed an amyloid nucleation score of -1.34 ± 1.

Regarding TLSLNGLNP, the amyloid nucleation score result is “inactive”.

GELTIYCSVVPYVVSR displayed an amyloid nucleation score of 0.415 ± 0.44.

ITSRVQFRETHTYIMYLEAW returned an amyloid nucleation score of 0.138 ± 0.43.

As for ELEPCDPGF, the amyloid nucleation score entry is “inactive”.

Substance NCSMPFETMMKHSRN gave an amyloid nucleation score of -0.068 ± 0.53.

For the substance LLMLGLLSQH, the amyloid nucleation score was found to be 0.427 ± 0.28.

Regarding DVNNIHLRKLTDCHI, the amyloid nucleation score is 1.61 ± 0.36.

As for LLFGTHVPIRRGRFDASMIY, the amyloid nucleation score came out at 0.58 ± 0.5.

DKLSNVFLFLTDGCLNFNSF returned an amyloid nucleation score of 3.1 ± 0.11.

As for IKDRFLEALCVKCGLSYTQG, the amyloid nucleation score was -0.035 ± 0.26.

In turn, SCLMLGTGGETLRSRPPRKV gave an amyloid nucleation score of -1.45 ± 1.1.

Consider YSYSGVRMVVILNWHGKWWC, for which the amyloid nucleation score was determined as 4.87 ± 0.096.

Turning to KYYMHLSSRDRRGAAWHLLF, the amyloid nucleation score is -0.075 ± 0.29.

Consider CFVVVCLFMKA, for which the amyloid nucleation score result is “inactive”.

Substance VIFRDPGQRRLSC displayed an amyloid nucleation score of -0.858 ± 2.1.

QFIRILDQSKILYLCCFLDT gave an amyloid nucleation score of 5.64 ± 0.061.

Regarding LPDVKCVLLLMLHLEASRSA, the amyloid nucleation score was -0.21 ± 0.58.

In turn, CIMMRHMVSYEADLRTMFLN had an amyloid nucleation score of 3.58 ± 0.18.

KTCYLQ yielded an amyloid nucleation score of -0.284 ± 1.1.

Take KVPDALFVDRLLYQVISCIH: the amyloid nucleation score worked out at 3.47 ± 0.084.

Substance VPGLRI had an amyloid nucleation score of 0.584 ± 0.54.

Consider MKDYHSDHIKIVQANHTEKV, for which the amyloid nucleation score was -1.32 ± 2.4.

In the case of AALWHFNFINRSFRTVGPAG, the amyloid nucleation score was -0.569 ± 0.38.

The substance FSLRLRDSWWAHSGRLYAYK showed an amyloid nucleation score of -0.428 ± 0.56.

In turn, VEMNFSFVGR displayed an amyloid nucleation score of 2.62 ± 0.23.

The substance PMAVRLSYCCNRIYVLY had an amyloid nucleation score of 4.47 ± 0.097.

The substance TNTLLTPGCGINAIGVALYV registered an amyloid nucleation score of -0.628 ± 0.3.

The substance SYEMWLEHYMRRQQRRP had an amyloid nucleation score of -0.282 ± 1.7.

KVKANILVFLTKLSMRPTKP registered an amyloid nucleation score of 1.86 ± 0.29.

In the case of RNNEDGRLKDRRRGLSHGPC, the amyloid nucleation score was -0.763 ± 0.36.

For HYVGSLMVSW, the amyloid nucleation score stood at 0.188 ± 0.81.

GGLILYKKNREFSSLQFSCV registered an amyloid nucleation score of -0.523 ± 0.46.

As to IENPVLRCSLYYPSRPIRRL, the amyloid nucleation score is -0.344 ± 0.58.

For VYTWPTICNCQRL, the amyloid nucleation score came out at 0.128 ± 0.36.

With GTMKWALYSDYLSSTFTIYH, the amyloid nucleation score is 0.137 ± 0.26.

As for SNWLM, the amyloid nucleation score was 2.06 ± 0.53.

GCKSGDGQRVGVLLNQNCTR registered an amyloid nucleation score of 0.863 ± 0.56.

As for LGLFCESYDEADCRTEDSAC, the amyloid nucleation score stood at 0.254 ± 0.3.

For the substance CCIMSRIGTCLWVEWRWCRG, the amyloid nucleation score amounted to 0.243 ± 0.39.

Substance VVYHT registered an amyloid nucleation score of -0.368 ± 0.28.

Consider RNIVIMYRNCLVKLNLETGS, for which the amyloid nucleation score worked out at 6.77 ± 0.053.

Consider LTTQIVIFFCWVCKDINCCK, for which the amyloid nucleation score was determined as 4.88 ± 0.081.

Substance TGFTSLGGYLKVFNIICWIH gave an amyloid nucleation score of 3.39 ± 0.097.

Substance MRSMGLCTTGCQIDSRRVRW showed an amyloid nucleation score of 0.947 ± 0.61.

Substance NAFSYTGRYIGLPRELGVLR yielded an amyloid nucleation score of 1.06 ± 0.52.

In turn, VHWRYWFVLISLDQRIGKA had an amyloid nucleation score of 0.199 ± 0.21.

Regarding VIDEFLSMCRVNMMGGVCRV, the amyloid nucleation score stood at 2.28 ± 0.35.

For the substance YQNFPVKLITQKCLCWIDRC, the amyloid nucleation score turned out to be 0.216 ± 0.31.

As to NTKSTPNTSVLFSLTTRI, the amyloid nucleation score stood at 1.3 ± 0.15.

In the case of APQSRFNHEYFFENIRRVVV, the amyloid nucleation score entry is “inactive”.

On to WLVTDFVCHLITNTIYTLLL, for which the amyloid nucleation score result was “inactive”.

In the case of TNCGITFVFTPIPRATTWSN, the amyloid nucleation score amounted to 5.37 ± 0.083.

Consider YSRIARLDVKRVGHEPDVRL, for which the amyloid nucleation score is -0.921 ± 2.4.

Consider FNRSLLLALVSAFENGLLSW, for which the amyloid nucleation score was 0.51 ± 1.2.

In turn, VWIPYCLNFQSCNNHKLSLA yielded an amyloid nucleation score of -1.13 ± 1.

For KCIQGTGSLWD, the amyloid nucleation score is -0.128 ± 0.3.

As to QVWITWVGRKLPHRGKTVGN, the amyloid nucleation score is -0.379 ± 0.53.

For NCMLTECPGLHSNLMWSKWG, the amyloid nucleation score is 1.5 ± 0.25.

AGECRYLLMSVDGYIGLNLV: the amyloid nucleation score came to 1.07 ± 0.48.

Substance FLRLAWGFLIMHEIRYAGWS yielded an amyloid nucleation score of 0.413 ± 1.2.

As to FRVMNRGAFYMRFKLG, the amyloid nucleation score stood at 1.04 ± 0.67.

Turning to IQLILSSAEFFSLAGSREYR, the amyloid nucleation score amounted to 2.43 ± 0.22.

Substance ANLACACCCYP returned an amyloid nucleation score of -0.146 ± 0.96.

The substance CVFRSYWVCLWSDNNGDVR came in with an amyloid nucleation score of 8.325 ± 0.07.

In turn, ARITMYLCFNRLLVGKVCSG yielded an amyloid nucleation score of -0.176 ± 1.1.

RGLYFNALSR: the amyloid nucleation score is -0.167 ± 0.43.

FLAVIGAPNRCDFGQSMLRM: the amyloid nucleation score was 3.51 ± 0.081.

As to AEASKYVMYIKARCMQLMRS, the amyloid nucleation score is -0.931 ± 1.1.

For the substance PFVYGLCESFPFGCQYGWGC, the amyloid nucleation score entry is “inactive”.

Take SNLQWYRTKGGVGLVTVMWR: the amyloid nucleation score worked out at 0.981 ± 0.16.

CYMYFWNRVDFT: the amyloid nucleation score was found to be 0.581 ± 0.17.

As for RLLRYMRDIR, the amyloid nucleation score was -0.814 ± 0.57.

In the case of MLGSGAANTCHLTTRAWDHR, the amyloid nucleation score was determined as 0.183 ± 0.39.

The substance SPLVDLYDFRWRLESRYKNY yielded an amyloid nucleation score of 0.107 ± 0.61.

Substance PYSQFANLSIYVMDMMRGIR registered an amyloid nucleation score of 5.562 ± 0.048.

The substance SMIDFIRSFLYHSY registered an amyloid nucleation score of -1.1 ± 0.5.

Consider EARWRQSC, for which the amyloid nucleation score stood at 0.387 ± 0.36.

In turn, FGWGTLIGGLWTDNEQSLFT returned an amyloid nucleation score of -0.375 ± 0.49.

As for CCQSFLLKSPSYRAMAFIWW, the amyloid nucleation score was -0.929 ± 0.33.

PILMFTVCMSDSQTVLNFCS displayed an amyloid nucleation score of 6.56 ± 0.047.

Take LRRIKCYTFMIAGSILVVGT: the amyloid nucleation score result was “inactive”.

The substance FYVRCREMSRGVWWSTSVR had an amyloid nucleation score of -0.188 ± 0.34.

Take GIGFFRCCLYRMFRYTRLSH: the amyloid nucleation score was determined as 0.365 ± 0.23.

Regarding TVNTYSANDYVRTMVCELSV, the amyloid nucleation score result was “inactive”.

RHAKRLWRV: the amyloid nucleation score was -0.574 ± 0.78.

The substance RRNVWASVTGGELWKGDLSR had an amyloid nucleation score of -0.498 ± 1.1.

On to MVKLSLVIMMVLNGGMANGS, for which the amyloid nucleation score was 0.69 ± 0.81.

RSIRC registered an amyloid nucleation score of -0.615 ± 1.1.

With PRLARMLLHDGAEYDCELSC, the amyloid nucleation score was -0.963 ± 1.2.

Consider MAWDLT, for which the amyloid nucleation score was found to be 1.52 ± 0.22.

As to TGATFMMRGVNLCEGSKSGN, the amyloid nucleation score is -0.198 ± 0.5.

HNFEFTRLAHLDSSTL: the amyloid nucleation score turned out to be 0.248 ± 0.47.

The substance MVETVYMVEALCRGPEPVVV gave an amyloid nucleation score of -2.09 ± 2.4.

With SALGFFRAYQSIKRTLFRRR, the amyloid nucleation score is -0.064 ± 0.56.

On to AMDMSADAGDSWNCGCQYSN, for which the amyloid nucleation score result is “inactive”.

In turn, LSGTTLIPEYILRSSNPSI displayed an amyloid nucleation score of 0.147 ± 1.6.

In the case of HYVRNPARD, the amyloid nucleation score result is “inactive”.

Substance PIVMCFFGKV had an amyloid nucleation score of -0.201 ± 0.41.

Regarding DSIMNGR, the amyloid nucleation score was determined as 0.713 ± 0.74.

TSRRAEYRWSYQEKSGSSRS registered an amyloid nucleation score of 1.26 ± 0.45.

With DNRLVSSGMRRGHSGWIGGT, the amyloid nucleation score is 0.505 ± 0.71.

Consider MWLFYRWVRSCTCP, for which the amyloid nucleation score was -0.042 ± 0.32.

As for NYSDYMWTRLANLA, the amyloid nucleation score was -0.2 ± 0.72.

In turn, VISSSVWFFATMQDCWVGRQ registered an amyloid nucleation score of 0.509 ± 0.69.

LYLIGTILNLIGY registered an amyloid nucleation score of 5.746 ± 0.045.

Substance IHVSENDMELVWLYGVVRI showed an amyloid nucleation score of -0.708 ± 0.9.

RLFFSE showed an amyloid nucleation score of 0.117 ± 0.32.

DAGMH displayed an amyloid nucleation score of 0.189 ± 0.3.

Consider NFDYHTTTVGMELWSLGFSS, for which the amyloid nucleation score is -0.585 ± 0.51.

As to LFIRGMIDDKVSITNYVC, the amyloid nucleation score was -0.546 ± 0.31.

In turn, KMSNCWLF had an amyloid nucleation score of -0.881 ± 0.55.

In turn, DVGMLV had an amyloid nucleation score of -0.107 ± 0.31.

Substance YLWADTRCLTGVW displayed an amyloid nucleation score of 0.413 ± 1.1.

For the substance YVIHLPKCTKLWMWANCFLW, the amyloid nucleation score is -0.215 ± 0.62.

In turn, FNDQVQTWWLSYFEAPRYFK returned an amyloid nucleation score of -1.29 ± 2.4.

Consider VVLGCDVMLYRISFPFMIHS, for which the amyloid nucleation score is -0.036 ± 0.47.

On to LLMGFGGAFSVNTADPRLLV, for which the amyloid nucleation score was -0.752 ± 0.65.

LFSNPFRQAWH: the amyloid nucleation score is -0.445 ± 0.71.

KQSCWALSYVYMTSHVLSGG came in with an amyloid nucleation score of 0.495 ± 1.4.

The substance GCLKTVGCA registered an amyloid nucleation score of -0.22 ± 0.64.

Consider WFRRLVTFSYNGWSYLSD, for which the amyloid nucleation score is -0.779 ± 0.73.

Take IVMQVLTQTVMWIFYLNGSH: the amyloid nucleation score was -0.254 ± 0.42.

Substance NRRVSLCRASCSIMRVKPLG gave an amyloid nucleation score of -0.261 ± 0.56.

In the case of QLTSVSIFWYPF, the amyloid nucleation score is -1.46 ± 2.4.

QGKLFFLVNLYSKPQNSHYG yielded an amyloid nucleation score of 4.13 ± 0.069.

TLRLKWSWEADCDI yielded an amyloid nucleation score of 2.49 ± 0.12.

As to TRLRTYKCLQMGDYHVSSFK, the amyloid nucleation score stood at 0.672 ± 0.79.

With VKTPTDRSYRLHGNFIGCWA, the amyloid nucleation score is -0.576 ± 0.38.

In the case of NDSICTYSMAWGRERSGVCY, the amyloid nucleation score entry is “inactive”.

For the substance LYTVTTKR, the amyloid nucleation score is -0.119 ± 0.31.

As for NDYEELIMYFKEDVF, the amyloid nucleation score came out at 1.76 ± 0.5.

WGAYTLKVGVDLIP yielded an amyloid nucleation score of 0.195 ± 0.57.

Turning to LCEHKSRLVEDAKGGET, the amyloid nucleation score was -0.043 ± 0.47.

With GVMPNCKKNLHEPALERFNT, the amyloid nucleation score was -0.413 ± 0.61.

On to VCVHDLCSLIQLGAYVMRET, for which the amyloid nucleation score was found to be 0.383 ± 0.29.

The values above are taken from the supplement of paper PMC12042874.
